Where two headings read alike, the source gives them in different places.
B1: mAb 18G6 (antibody, V domains shown)
VH: QVQLKESGPGLVKPSETLSLTCTVSGGSISSSNYNWGWIRQPPGKGLEWIGSVYYSGSTYFNPSLKSRVTISVDTSKNQFSLKLTSVTAADTAVYYCARLIAFYYDTNGYTWGQGTLVTVS
VL: NSIMTQSPFTLSASVGDKVTITCRASQSISPWLAWYQQKPGKAPKLLIYKASSLETGVPSRFSGSESGTEFTLTISGLQPDDFATYYCQQYSSFARTFGQGTKVEIKR
B2: mAb 25J3 (antibody, V domains shown)
VH: QVQLQESGPGLVRPSETLSLTCNVSGDSINDYYWSWIRQPPGKGLEWIGYIYYSGSTNYNPSLNSRVTISVEMSKNQFSLILNSVTAADTAVYYCARVDYDSGGSFDPWGQGTLVTVS
VL: QSVLTQPPSVSGAPGQRVTISCTGSSSNIGAGYDVHWYQQLPGTAPKLLIYGNSNRPSGVPDRFSGSKSGTSASLAITGLQAEDEADFYCQSYDSRLSGYVFGTGTKVTVLG
B3: mAb 4A10 (antibody, V domains shown)
VH: EVQLVESGGGLVQPGGSLRLSCAASGFSFSSYWMTWVRQAPGKGLEWVANIKQYGSEKYYVDSVKGRFTISRDNAKNSLYLQMNSLRDDDTAVYYCARMGSYLDTYYYHYGMDVWGQGTTVTVS
VL: QSVLTQPPSLSGAPGQRVTISCTGSSSNIGADYDVYWYQHLPGTAPKLLMYGDGYRPSGVPDRFSGSKSGTSASLAITGLQAEDEADYYCQSYDSSLSRRVVFGGGTKLTVLG
B4: mAb 7A13 (antibody, V domains shown)
VH: QVQLQESAPGLVKPSGTLSLTCAVSGASLSSSDWWTWVRQPPGKGLEWIGEIHHGGSTNSNPSLQSRVTISIDKSKKQFSLKLTSVTVADTAVYYCARAPGADAGPYSENIHHWGQGTLVTVS
VL: QLVLTQSPSASASLGASVKLTCTLSSRHSDYAIGWHQQQPGKGPRYLMKLNPDGSHTKGDGIPDRFSGSSSGAERYLTISNLLSEDEADYYCQTWGTGIQVFGGGTRLTVIS
B5: mAb 2K11 (antibody, V domains shown)
VH: EVQLVESGGGLVQPGGSLRLSCVASTFSLINYWMTWVRQAPGKGLEWVANIKQDGFEKYYVDSVKGRFTISRDNAKNSLYLQMNSLRVEDTAVYYCARQGSYADTYFYHYGMDVWGQGTTVTVS
VL: QSALTQPPSVSGAPGQRVTISCTGSSSNIGAGYDAYWYQQLPGTAPKLLIYGNSNRLSGVPDRFSASKSGTSASLAITGLQAEDEADYYCQSYDSSLSIFGGGTKLTVLR
B6: mAb 8F8 (antibody, V domains shown)
VH: EVQLLESGGGVVQPGRSLRLSCAASGFMFSSYVMHWVRQPPGKGLEWVAVIWYDGSKTYFADSMRGRLTVSRDNSKNALYLQMNRLRAEDTAVYYCARQQDSGYSGPEVSYYSHYGMDVWGQGTTVIVS
VL: QSVLTQSPSASGTPGRAITISCSGSSSNIGSNPVNWYQQLPGAAPKLLIYADEHRPSGVPDRFSGPKSGTSASLAISGLQSEDEADYYCAAWDDSLSGPAVVFGGGTKLTVLG
B7: mAb 11J19 (antibody, V domains shown)
VH: EVQLQESGPGLVKPSETLSLSCTVSGGSITRSSYYWGWIRQPPGKGLEWIGNIYYSGTTYYNPSLKSRVTISVDTSKNQFSLKLSSVTAADTAVYYCARLYGSGLDYWGQGTLVTVS
VL: DIQLTQSPSFLSASVGDRVTITCRASQGSSRYVAWYQQKPGKAPKLLILAASTLHTGVPSRFSGSGSGTEFTLTISSLQPEDFATYSCQQLNGFLLTFGGGTKVEIKR
B8: mAb 2G1 (antibody, V domains shown)
VH: EVQLVESGAEVKKPGSSVKVSCKASGGTFITHVFTWVRQAPGQGLEWVGGFIAIFGTSNYAQKFQGRVTITADESTSTAYMELTSLTSEDTAVYYCARGISGSYGWFDPWGQGTLVTVS
VL: DIQLTQSPSSLSASVGDRVTITCQASQDIRKYLNWYQQKPGKAPNLLIYDASNVKTGVPSRFRGSGSGTDFTFTISSLQPEDIATYYCQQYDNLPITFGQGTRLEIKR
B9: mAb 2O10 (antibody, V domains shown)
VH: EVQLVESGGGLVQPGGSLRLSCAASGFTFNSYWMTWVRQAPGKGLEWVANINQDGSEKFFVDSVKGRFTISRDNAKTSLYLQMNSLRVEDTAVYYCAREGAPYDTYYYYYAMDVWGQGTTVTVS
VL: QSVLTQPPSVSGAPGQRVTISCTGTSSNIGAGYGVHWYQQLPGAAPKLLVYGNSNRPSGVPDRFSGSKSGTSASLAITGLQAEDEADYYCQSYDISLSGSNVFGTGTKVTVLG
B10: 5J8 Fab (Fab, V domains shown)
VH: EVQLVESGPGLVKPSDILSLTCAVSGYSISSNYYWGWIRQPPGKGLEWIGSIYHSGSTYYKPSLESRLGISVDTSKNQFSLKLSFVSAADTAVYYCARHVRSGYPDTAYYFDKWGQGTLVTVS
VL: SYVLTQPPSVSVAPGETARISCGGNNIGTKVLHWYQQTPGQAPVLVVYDDSDRPSGIPERFSGSNSGNTATLTISRVEVGDEADYYCQVWDISTDQAVFGGGTKLTVLG

Key:
[1] = target: T1, recombinant soluble 1968 H3 HA (A/Aichi/2/1968) (Influenza A virus A/Aichi/2/1968 (H3N2), UniProt P03437 17-530); experiment: ELISA, supernate
[2] = target: T2, recombinant soluble trimeric 1918 H1 HA (A/South Carolina/1/1918, wild type) (Influenza A virus A/South …, UniProt Q9WFX3 18-529); experiment: ELISA, supernate
[3] = target: T1, recombinant soluble 1968 H3 HA …; experiment: ELISA, supernate; remark: listed apart in the source
[4] = target: T2, recombinant soluble trimeric 1918 H1 HA …; experiment: ELISA, supernate; remark: listed apart in the source
[5] = target: T1, recombinant soluble 1968 H3 HA …; experiment: ELISA, unconcentrated supernate
[6] = target: HA of A/USSR/92/1977 (H1N1) virus (Influenza A virus (H1N1)); experiment: cell-based or functional assay
[7] = target: HA of A/Weiss/1943 (H1N1) virus (Influenza A virus (H1N1)); experiment: cell-based or functional assay
[8] = target: T3, HA of A/California/04/2009 (H1N1) virus (Influenza A virus (H1N1)); experiment: cell-based or functional assay
[9] = target: HA of A/New Jersey/11/1976 (H1N1) virus (Influenza A virus (H1N1)); experiment: cell-based or functional assay
[10] = target: HA of A/New Caledonia/20/1999 (H1N1) virus (Influenza A virus (H1N1)); experiment: cell-based or functional assay
[11] = target: HA of A/South Carolina/1/1918 (H1N1), wild type, on VLP (Influenza A virus A/South …, UniProt Q9WFX3 18-566); experiment: cell-based or functional assay
[12] = target: HA of A/Brisbane/59/2007 (H1N1) virus (Influenza A virus (H1N1)); experiment: cell-based or functional assay
[13] = target: HA of A/L3/1947 (H1N1) virus (Influenza A virus (H1N1)); experiment: cell-based or functional assay
[14] = target: HA of A/swine/Iowa/15/1930 (H1N1) virus (Influenza A virus (H1N1)); experiment: cell-based or functional assay
[15] = target: HA of A/Hong Kong/1/1968 (H3N2) virus (Influenza A virus (H3N2), UniProt Q91MA7 17-566); experiment: cell-based or functional assay
[16] = target: HA of A/Alabama/1/1981 (H3N2) virus (Influenza A virus (H3N2)); experiment: cell-based or functional assay
[17] = target: HA of A/Vietnam/1203/2004 (H5N1) virus (Influenza A virus (H5N1)); experiment: cell-based or functional assay
[18] = target: T3, HA of A/California/04/2009 (H1N1) virus; experiment: cell-based or functional assay; remark: listed apart in the source
[19] = target: HA of A/Ann Arbor/7/1967 (H2N2) virus (Influenza A virus (H2N2)); experiment: cell-based or functional assay
[20] = target: HA of A/Ann Arbor/23/1957 (H2N2) virus (Influenza A virus (H2N2)); experiment: cell-based or functional assay
[21] = target: HA of A/Albany/6/1958 (H2N2) virus (Influenza A virus (H2N2)); experiment: cell-based or functional assay
[22] = target: HA of A/Netherlands/65/1963 (H2N2) virus (Influenza A virus (H2N2)); experiment: cell-based or functional assay
[23] = target: HA of A/Rockville Illinois/5/1957 (H2N2) virus (Influenza A virus (H2N2)); experiment: cell-based or functional assay
[24] = target: HA of A/Japan/305/1957 (H2N2) virus (Influenza A virus (H2N2), UniProt P03451 16-562); experiment: cell-based or functional assay
[25] = target: HA of A/swine/Missouri/2124514/2006 (H2N3) virus (Influenza A virus (H2N3)); experiment: cell-based or functional assay
[26] = target: T2, recombinant soluble trimeric 1918 H1 HA …; experiment: biolayer interferometry (Octet Red), His-tagged HA on anti-Penta-HIS tips

Binder | OD [1] | OD [2] | OD [3] | OD [4] | binding result [5] | HAI activity [6] | HAI activity [7] | HAI activity [8] | HAI activity [9] | HAI activity [10] | HAI activity [11] | HAI activity [12] | HAI activity [13] | HAI activity [14] | HAI activity [15] | HAI activity [16] | HAI activity [17] | HAI activity [18] | further results
B1 | 0.073 OD | 0.075 OD | – | – | – | – | – | – | – | – | – | – | – | – | – | – | – | – | –
B2 | 0.623 OD | 0.07 OD | – | – | – | – | – | – | – | – | – | – | – | – | – | – | – | – | –
B3 | – | – | 0.072 OD | 0.725 OD | no binding | 0.32 µg/mL | > 20 µg/mL | 0.16 µg/mL | 2.5 µg/mL | > 20 µg/mL | 0.08 µg/mL | > 20 µg/mL | > 20 µg/mL | 0.63 µg/mL | – | – | – | – | –
B4 | 0.265 OD | 0.076 OD | – | – | – | – | – | – | – | – | – | – | – | – | 0.7 µg/mL | > 20 µg/mL | > 20 µg/mL | > 20 µg/mL | –
B5 | – | – | 0.08 OD | 0.311 OD | no binding | 0.32 µg/mL | > 20 µg/mL | 0.63 µg/mL | 1.3 µg/mL | > 20 µg/mL | 0.16 µg/mL | > 20 µg/mL | > 20 µg/mL | 0.16 µg/mL | – | – | – | – | –
B6 | 0.079 OD | 0.07 OD | – | – | – | – | – | – | – | – | – | – | – | – | > 20 µg/mL | – | > 20 µg/mL | > 20 µg/mL | HAI activity [19]: > 20 µg/mL; HAI activity [20]: 0.1 µg/mL; HAI activity [21]: 0.32 µg/mL; HAI activity [22]: 0.1 µg/mL; HAI activity [23]: 0.4 µg/mL; HAI activity [24]: 0.4 µg/mL; HAI activity [25]: 0.63 µg/mL
B7 | 0.895 OD | 0.079 OD | – | – | – | – | – | – | – | – | – | – | – | – | 2.5 µg/mL | > 20 µg/mL | > 20 µg/mL | > 20 µg/mL | –
B8 | – | – | – | – | – | – | – | – | – | – | – | – | – | – | 5 µg/mL | > 50 µg/mL | > 50 µg/mL | > 50 µg/mL | HAI activity [19]: > 20 µg/mL; HAI activity [20]: 0.025 µg/mL; HAI activity [21]: 0.32 µg/mL; HAI activity [22]: 0.05 µg/mL; HAI activity [23]: 0.2 µg/mL; HAI activity [24]: 0.7 µg/mL; HAI activity [25]: 0.63 µg/mL
B9 | – | – | 0.077 OD | 0.308 OD | no binding | 2.5 µg/mL | > 20 µg/mL | 0.32 µg/mL | 2.5 µg/mL | > 20 µg/mL | 0.04 µg/mL | > 20 µg/mL | > 20 µg/mL | 0.08 µg/mL | – | – | – | – | –
B10 | – | – | – | – | – | – | – | – | – | – | – | – | – | – | – | – | – | – | Kd [26]: 190 nM; koff [26]: 0.036 s⁻¹; kon [26]: 200000 M⁻¹ s⁻¹

From US20130289246A1 (VANDERBILT UNIVERSITY, published 2013)
